Assay results as given in publication PMC11087256.
Read-outs that look alike come from different tables or passages of the source.

Legend:
GST-EphA2 [1] = target: GST-EphA2 (UniProt P29317); assay: ELISA; as the ELISA on GST-EphA2-coated plates, gH/gL or gB incubated in the presence of IFITM1 (concentration of IFITM1 not stated)
GST-EphA2 [2] = target: GST-EphA2 (UniProt P29317); assay: ELISA; 200 ng GST-EphA2 coated on 96-well plates overnight at 4 °C, blocked with 5% BSA in PBS; gradient concentrations of 6×His proteins, 2 h at room temperature; anti-His or anti-GST antibody, HRP secondary, absorbance at 450 nm
GST-EphA2 [3] = target: GST-EphA2 (UniProt P29317); assay: as above; remark: listed apart in the source

Substance | EC50 with IFITM1 (GST-EphA2 [1]) [nM] | EC50 (GST-EphA2 [2]) [nM] | EC50 (GST-EphA2 [3]) [nM]
6×His-gH/gL (from UniProt P03231 19-706; P03212 23-137) (complex) | 75.7 | 33.5 | 32
soluble 6×His-IFITM1 fusion protein (sIFITM1) (from UniProt P13164 1-125) (natural protein) |  | 15.4 | 
